The supplement of paper PMC5998384

Legend:
HeLa Kyoto [1] = assay: solubility in G1/S (NP-40 vs SDS abundance) (log2 ratio); higher = more soluble; settings: cell cycle stage: G1/S
HeLa Kyoto [2] = assay: melting temperature (median over replicates), in situ; higher = more thermally stable
HeLa Kyoto [3] = assay: solubility change mitosis vs G1/S (difference of NP-40 vs SDS log2 ratios) (log2 ratio difference); higher = more soluble in mitosis
HeLa Kyoto [4] = assay: thermal stability score vs G1/S (z-score of summed log2 fold changes over temperatures); higher = more thermally stable than in G1/S
[5] = cell cycle stage: early G1 (4.5 h after nocodazole release)
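For melting temperature (median over replicates), in situ in this document: HeLa Kyoto cells synchronized by double thymidine or nocodazole block, proteins quantified by TMT10plex mass spectrometry, three independent biological replicates.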
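For solubility change mitosis vs G1/S (difference of NP-40 vs SDS log2 ratios) in this document: synchronized HeLa Kyoto cells (double thymidine block for G1/S, nocodazole release for mitosis), protein amounts in NP-40 versus SDS lysates quantified by mass spectrometry, three biological replicates.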
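For solubility in G1/S (NP-40 vs SDS abundance) in this document: HeLa Kyoto cells arrested at G1/S by double thymidine block, proteins quantified by TMT10plex mass spectrometry in mild NP-40 versus SDS extracts, three biological replicates.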
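For thermal stability score vs G1/S (z-score of summed log2 fold changes over temperatures) in this document: synchronized HeLa Kyoto cells, proteins quantified by TMT10plex mass spectrometry, three biological replicates, mitosis taken 0.5 h after nocodazole release, G1/S directly after double thymidine block.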

For “MIEMAAEKEPFLVPAPPPPLKDESGGGGGPTVPPHQEAASGELRGGTERGPGRCAPSAGSPAAAVGRESPGAAATSSSGPQAQQHRGGGPQAQSHGEARLSDPPGRAAPPDVGEERRGGGGTELGPPAPPRPRNGYQPHRPPGGGGGKRRNSCNVGGGGGGFKHPAFKRRRRVNSDCDSVLPSNFLLGGNIFDPLNLNSLLDEEVSRTLNAETPKSSPLPAKGRDPVEILIPKDITDPLSLNTCTDEGHVVLASPLKTGRKRHRHRGQHHQQQQAAGGSESHPVPPTAPLTPLLHGEGASQQPRHRGQNRDAPQPYELNTAINCRDEVVSPLPSALQGPSGSLSAPPAASVISAPPSSSSRHRKRRRTSSKSEAGARGGGQGSKEKGRGSWGGRHHHHHPLPAAGFKKQQRKFQYGNYCKYYGYRNPSCEDGRLRVLKPEWFRGRDVLDLGCNVGHLTLSIACKWGPSRMVGLDIDSRLIHSARQNIRHYLSEELRLPPQTLEGDPGAEGEEGTTTVRKRSCFPASLTASRGPIAAPQVPLDGADTSVFPNNVVFVTGNYVLDRDDLVEAQTPEYDVVLCLSLTKWVHLNWGDEGLKRMFRRIYRHLRPGGILVLEPQPWSSYGKRKTLTETIYKNYYRIQLKPEQFSSYLTSPDVGFSSYELVATPHNTSKGFQRPVYLFHKARSPSH [MEPCE]”, the “solubility in G1/S (log2)” value (HeLa Kyoto [1]) was -0.115, the melting temperature (HeLa Kyoto [2]; cell cycle stage: G1/S) was 47.8 °C and the melting temperature (HeLa Kyoto [2]; cell cycle stage: mitosis) was 49.8 °C. For the same sequence, the “solubility change mitosis (log2)” value (HeLa Kyoto [3]) was 0.364, the thermal stability score (HeLa Kyoto [4]; [5]) was 2.47 and the thermal stability score (HeLa Kyoto [4]; cell cycle stage: mitosis) was 4.6.

With “MIFPVARYALRWLRRPEDRAFSRAAMEMALRGVRKVLCVAEKNDAAKGIADLLSNGRMRRREGLSKFNKIYEFDYHLYGQNVTMVMTSVSGHLLAHDFQMQFRKWQSCNPLVLFEAEIEKYCPENFVDIKKTLERETRQCQALVIWTDCDREGENIGFEIIHVCKAVKPNLQVLRARFSEITPHAVRTACENLTEPDQRVSDAVDVRQELDLRIGAAFTRFQTLRLQRIFPEVLAEQLISYGSCQFPTLGFVVERFKAIQAFVPEIFHRIKVTHDHKDGIVEFNWKRHRLFNHTACLVLYQLCVEDPMATVVEVRSKPKSKWRPQALDTVELEKLASRKLRINAKETMRIAEKLYTQGYISYPRTETNIFPRDLNLTVLVEQQTPDPRWGAFAQSILERGGPTPRNGNKSDQAHPPIHPTKYTNNLQGDEQRLYEFIVRHFLACCSQDAQGQETTVEIDIAQERFVAHGLMILARNYLDVYPYDHWSDKILPVYEQGSHFQPSTVEMVDGETSPPKLLTEADLIALMEKHGIGTDATHAEHIETIKARMYVGLTPDKRFLPGHLGMGLVEGYDSMGYEMSKPDLRAELEADLKLICDGKKDKFVVLRQQVQKYKQVFIEAVAKAKKLDEALAQYFGNGTELAQQEDIYPAMPEPIRKCPQCNKDMVLKTKKNGGFYLSCMGFPECRSAVWLPDSVLEASRDSSVCPVCQPHPVYRLKLKFKRGSLPPTMPLEFVCCIGGCDDTLREILDLRFSGGPPRASQPSGRLQANQSLNRMDNSQHPQPADSRQTGSSKALAQTLPPPTAAGESNSVTCNCGQEAVLLTVRKEGPNRGRQFFKCNGGSCNFFLWADSPNPGAGGPPALAYRPLGASLGCPPGPGIHLGGFGNPGDGSGSGTSCLCSQPSVTRTVQKDGPNKGRQFHTCAKPREQQCGFFQWVDENTAPGTSGAPSWTGDRGRTLESEARSKRPRASSSDMGSTAKKPRKCSLCHQPGHTRPFCPQNR [TOP3A]” the “solubility in G1/S (log2)” value (HeLa Kyoto [1]) was -0.336, the melting temperature (HeLa Kyoto [2]; cell cycle stage: G1/S) was 46.9 °C and the melting temperature (HeLa Kyoto [2]; cell cycle stage: mitosis) was 48.4 °C. The “solubility change mitosis (log2)” value (HeLa Kyoto [3]) was 0.0865, the thermal stability score (HeLa Kyoto [4]; [5]) was 1.18 and the thermal stability score (HeLa Kyoto [4]; cell cycle stage: mitosis) was 1.85.

With “MIIPSLEELDSLKYSDLQNLAKSLGLRANLRATKLLKALKGYIKHEARKGNENQDESQTSASSCDETEIQISNQEEAERQPLGHVTKTRRRCKTVRVDPDSQQNHSEIKISNPTEFQNHEKQESQDLRATAKVPSPPDEHQEAENAVSSGNRDSKVPSEGKKSLYTDESSKPGKNKRTAITTPNFKKLHEAHFKEMESIDQYIERKKKHFEEHNSMNELKQQPINKGGVRTPVPPRGRLSVASTPISQRRSQGRSCGPASQSTLGLKGSLKRSAISAAKTGVRFSAATKDNEHKRSLTKTPARKSAHVTVSGGTPKGEAVLGTHKLKTITGNSAAVITPFKLTTEATQTPVSNKKPVFDLKASLSRPLNYEPHKGKLKPWGQSKENNYLNQHVNRINFYKKTYKQPHLQTKEEQRKKREQERKEKKAKVLGMRRGLILAED [NUSAP1]” the “solubility in G1/S (log2)” value (HeLa Kyoto [1]) was -0.327, the melting temperature (HeLa Kyoto [2]; cell cycle stage: G1/S) was 54.7 °C and the melting temperature (HeLa Kyoto [2]; cell cycle stage: mitosis) was 54.6 °C. For the same sequence, the “solubility change mitosis (log2)” value (HeLa Kyoto [3]) was 0.535, the thermal stability score (HeLa Kyoto [4]; [5]) was 1.75 and the thermal stability score (HeLa Kyoto [4]; cell cycle stage: mitosis) was -5.46.

For “MIKLFSLKQQKKEEESAGGTKGSSKKASAAQLRIQKDINELNLPKTCDISFSDPDDLLNFKLVICPDEGFYKSGKFVFSFKVGQGYPHDPPKVKCETMVYHPNIDLEGNVCLNILREDWKPVLTINSIIYGLQYLFLEPNPEDPLNKEAAEVLQNNRRLFEQNVQRSMRGGYIGSTYFERCLK [UBE2M]”, the “solubility in G1/S (log2)” value (HeLa Kyoto [1]) was 0.576, the melting temperature (HeLa Kyoto [2]; cell cycle stage: G1/S) was 51.1 °C and the melting temperature (HeLa Kyoto [2]; cell cycle stage: mitosis) was 51.2 °C. The “solubility change mitosis (log2)” value (HeLa Kyoto [3]) was -0.0392, the thermal stability score (HeLa Kyoto [4]; [5]) was -1.49 and the thermal stability score (HeLa Kyoto [4]; cell cycle stage: mitosis) was -1.29.
